Assay results taken from patent US20130165347.

Tested on: Terminal deoxynucleotidyl transferase (TdT, pCMV-TdT / pMTdT)
Assay: cell_activity
Details: wild-type CHO KA8 cells, 19 of 27 clones, I-SceI-cleaved ends; 4% without TdT; N addition absent in Ku80- or XRCC4-deficient cells

With TACCCTGTTATCCCTA (double strand) the activity (% junctions with N additions) was 70.
